According to patent US20110256180A1 (CHILDREN S HOSPITAL AND RESEARCH CENTER AT OAKLAND, published 2011):
Where a chain is given by its changes, count along the chain named. Numbers in names are those of the source.

B1: fHbp ID 15 E241K mutant (other)
chain: CSSGGGGSGGGGVAADIGAGLADALTAPLDHKDKGLKSLTLEDSISQNGTLTLSAQGAERTFKAGDKDNSLNTGKLKNDKISRFDFIRQIEVDGQLITLESGEFQVYKQSHSALTALQTEQVQDSEHSGKMVAKRQFRIGDIVGEHTSFGKLPKDVMATYRGTAFGSDDAGGKLTYTIDFAAKQGHGKIEHLKSPELNVDLAAADIKPDEKHHAVISGSVLYNQAEKGSYSLGIFGGQAQEVAGSAEVKTANGIRHIGLAAKQ
B2: fHbp ID 15 S41P mutant (other)
chain: B1 chain with S46P, K249E
notes: also called Pep 15 S41P
B3: fHbp ID 28, wild-type (strain M1239, variant group 3, modular group II) (other)
chain: CSSGGGGSGGGGVAADIGTGLADALTAPLDHKDKGLKSLTLEDSIPQNGTLTLSAQGAEKTFKAGDKDNSLNTGKLKNDKISRFDFVQKIEVDGQTITLASGEFQIYKQNHSAVVALQIEKINNPDKTDSLINQRSFLVSGLGGEHTAFNQLPGGKAEYHGKAFSSDDPNGRLHYSIDFTKKQGYGRIEHLKTLEQNVELAAAELKADEKSHAVILGDTRYGSEEKGTYHLALFGDRAQEIAGSATVKIGEKVHEIGIAGKQ
notes: Recombinant; also called Pep28; peptide 28
B4: fHbp ID 28 E218A mutant (other)
chain: B3 chain with E225A
notes: also called E218A (ID 28)
B5: fHbp ID 28 K245A mutant (other)
chain: B3 chain with K252A
B6: fHbp ID 28 D201A mutant (other)
chain: B3 chain with D208A
notes: also called D201A (ID 28)
B7: fHbp ID 28 E197A mutant (other)
chain: B3 chain with E204A
B8: fHbp ID 14 (natural variant, variant group 1, modular group I) (other)
chain: CSSGGGGVAADIGAGLADALTAPLDHKDKSLQSLTLDQSVRKNEKLKLAAQGAEKTYGNGDSLNTGKLKNDKVSRFDFIRQIEVDGQLITLESGEFQVYKQSHSALTALQTEQEQDPEHSGKMVAKRRFKIGDIAGEHTSFDKLPKDVMATYRGTAFGSDDAGGKLTYTIDFAAKQGHGKIEHLKSPELNVELATAYIKPDEKHHAVISGSVLYNQDEKGSYSLGIFGGQAQEVAGSAEVETANGIHHIGLAAKQ
notes: Recombinant
B9: fHbp chimera I R41S mutant (other)
chain: CSSGGGGVAADIGAGLADALTAPLDHKDKGLQSLTLDQSVSKNEKLKLAAQGAEKTYGNGDSLNTGKLKNDKVSRFDFIRQIEVDGQLITLESGEFQVYKQSHSALTAFQTEQIQDSEHSGKMVAKRQFRIGDIAGEHTAFNQLPDGKAEYHGKAFSSDDAGGKLTYTIDFAAKQGHGKIEHLKTPEQNVELAAAELKADEKSHAVILGDTRYGSEEKGTYHLALFGDRAQEIAGSATVKIGEKVHEIGIAGKQ
notes: Recombinant; also called R41S mutant of the fHbp chimera I
B10: fHbp ID 22 R41S mutant (other)
chain: CSSGGGGVAADIGAGLADALTAPLDHKDKSLQSLTLDQSVSKNEKLKLAAQGAEKTYGNGDSLNTGKLKNDKVSRFDFIRQIEVDGQLITLESGEFQIYKQDHSAVVALQIEKINNPDKIDSLINQRSFLVSGLGGEHTAFNQLPSGKAEYHGKAFSSDDPNGRLHYSIDFTKKQGYGRIEHLKTPEQNVELASAELKADEKSHAVILGDTRYGGEEKGTYHLALFGDRAQEIAGSATVKIREKVHEIGIAGKQ
notes: also called R41S (ID 22)
B11: fHbp ID 22 Q38A mutant (other)
chain: B10 chain with Q38A, S41R
B12: fHbp ID 22 Q126A mutant (other)
chain: B10 chain with S41R, Q126A
B13: fHbp ID 77 D121A mutant (other)
chain: CSSGGGGVAADIGARLADALTAPLDHKDKSLQSLTLDQSVRKNEKLKLAAQGAEKTYGNGDSLNTGKLKNDKVSRFDFIRQIEVDGQLITLESGEFQIYKQDHSAVVALQIEKINNPDKIASLINQRSFLVSGLGGEHTAFNQLPDGKAEYHGKAFSSDDAGGKLTYTIDFAAKQGHGKIEHLKTPEQNVELAAAELKADEKSHAVILGDTRYGSEEKGTYHLALFGDRAQEIAGSATVKIGEKVHEIGIAGKQ
B14: fHbp ID 77 K119A mutant (other)
chain: B13 chain with K119A, A121D
B15: fHbp ID 77 K113A/D121A double mutant (other)
chain: B13 chain with K113A
B16: fHbp ID 77 R41S/D121A double mutant (other)
chain: B13 chain with R41S
B17: fHbp ID 22 R80A mutant (protein)
chain: B10 chain with S41R, R80A
B18: fHbp ID 22 T220A/H222A double mutant (protein)
chain: B10 chain with S41R, T220A, H222A
B19: fHbp ID 22 D211A mutant (protein)
chain: B10 chain with S41R, D210A
B20: fHbp ID 22 E248A mutant (protein)
chain: B10 chain with S41R, E247A
B21: fHbp ID 22 G236I mutant (protein)
chain: B10 chain with S41R, G235I
B22: fHbp ID 22 E218A mutant (protein)
chain: B10 chain with S41R, E217A
B23: fHbp ID 22, wild-type (variant group 2, modular group III) (other)
chain: B10 chain with S41R
notes: Recombinant; also called ID 22 (III); WT ID 22
B24: fHbp ID 77, wild-type (strain 8047, variant group 2, modular group VI) (other)
chain: B13 chain with A121D
notes: Recombinant; also called ID 77 (VI); wildtype fHbp ID 77
B25: fHbp ID 22 A235G mutant (other)
chain: B10 chain with S41R, A234G
B26: fHbp ID 22 E202A mutant (other)
chain: B10 chain with S41R, E201A
B27: fHbp ID 22 D201A mutant (other)
chain: B10 chain with S41R, D200A
notes: also called D201A (ID 22)
B28: fHbp ID 77 R41S mutant (other)
chain: B13 chain with R41S, A121D
notes: also called R41S (ID 77)
B29: fHbp ID 77 K113A mutant (other)
chain: B13 chain with K113A, A121D

Target: T1, human complement factor H (human, UniProt P08603 19-1231)
T1 construct: also called human fH; fH
T1 sequence (P08603 19-1231 limits assumed): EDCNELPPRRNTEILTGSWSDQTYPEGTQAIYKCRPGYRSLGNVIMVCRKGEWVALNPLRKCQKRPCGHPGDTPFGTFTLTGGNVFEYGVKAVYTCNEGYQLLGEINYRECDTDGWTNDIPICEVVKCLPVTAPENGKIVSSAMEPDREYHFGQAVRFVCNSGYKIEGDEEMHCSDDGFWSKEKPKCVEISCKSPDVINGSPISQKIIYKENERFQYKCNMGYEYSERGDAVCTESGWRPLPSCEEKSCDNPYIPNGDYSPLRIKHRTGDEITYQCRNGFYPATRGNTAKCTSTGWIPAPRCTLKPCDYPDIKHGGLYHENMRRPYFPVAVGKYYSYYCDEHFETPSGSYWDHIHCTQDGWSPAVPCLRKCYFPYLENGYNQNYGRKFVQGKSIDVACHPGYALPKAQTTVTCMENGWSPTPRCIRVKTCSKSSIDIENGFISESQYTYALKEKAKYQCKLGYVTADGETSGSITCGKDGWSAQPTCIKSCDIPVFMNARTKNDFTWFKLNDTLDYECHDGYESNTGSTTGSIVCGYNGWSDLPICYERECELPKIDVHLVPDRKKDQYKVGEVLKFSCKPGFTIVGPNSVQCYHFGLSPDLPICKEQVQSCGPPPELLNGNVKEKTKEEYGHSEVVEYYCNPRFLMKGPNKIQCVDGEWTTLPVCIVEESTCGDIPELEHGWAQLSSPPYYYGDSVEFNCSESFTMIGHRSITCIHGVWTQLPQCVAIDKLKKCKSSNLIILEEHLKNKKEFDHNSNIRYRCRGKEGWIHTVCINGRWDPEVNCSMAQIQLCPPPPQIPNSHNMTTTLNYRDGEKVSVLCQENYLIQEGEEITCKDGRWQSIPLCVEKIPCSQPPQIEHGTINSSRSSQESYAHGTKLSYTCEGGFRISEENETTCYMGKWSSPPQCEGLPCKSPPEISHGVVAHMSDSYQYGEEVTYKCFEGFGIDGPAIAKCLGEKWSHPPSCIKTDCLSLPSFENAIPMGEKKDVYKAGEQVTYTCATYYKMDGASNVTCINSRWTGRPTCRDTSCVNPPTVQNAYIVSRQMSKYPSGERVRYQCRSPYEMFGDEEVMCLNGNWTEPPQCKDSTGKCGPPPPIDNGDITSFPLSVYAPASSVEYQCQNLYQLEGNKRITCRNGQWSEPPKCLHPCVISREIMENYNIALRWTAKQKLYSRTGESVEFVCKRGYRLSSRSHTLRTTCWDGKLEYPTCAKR
Test: ELISA, fHbp on plate

Row | Molecule | fold effect on fH binding relative to wildtype fHbp [fold] | binding result | fold reduction in fH binding vs wildtype fHbp ID 22 [fold] | fold decrease in fH binding compared with wildtype fHbp ID 77 [fold] | fold increase in fH binding compared to wildtype fHbp ID 77 [fold] | fold decreased binding of fH [fold] | fold less binding to fH than wildtype fHbp ID 77 [fold]
1 | B1 | < 2 |  |  |  |  |  | 
2 | B2 |  | no binding |  |  |  |  | 
3 | B3 |  | binds |  |  |  |  | 
4 | B4 |  | binds |  |  |  |  | 
5 | B5 |  | binds |  |  |  |  | 
6 | B6 |  | binds |  |  |  |  | 
7 | B7 |  | binds |  |  |  |  | 
8 | B8 |  | binds |  |  |  |  | 
9 | B9 |  | no binding |  |  |  |  | 
10 | B10 |  |  | < 4 |  |  |  | 
11 | B11 |  |  | < 4 |  |  |  | 
12 | B12 |  |  | < 4 |  |  |  | 
13 | B13 |  |  |  | ~4 |  |  | 
14 | B14 |  |  |  |  | ~4 |  | 
15 | B15 |  |  |  |  |  | ~10 | 
16 | B16 |  |  |  |  |  |  | ~10

Target: human complement factor H (human) (UniProt P08603)
Sequence (P08603 19-1231 limits assumed): as above
Test: ELISA, vs respective wildtype fHbp

Row | Molecule | Fold-Decrease in fH binding [fold]
17 | fHbp ID 9 R41S mutant | > 50
18 | fHbp ID 74 R41S mutant | > 50
19 | B17 | > 50
20 | B18 | > 50
21 | B19 | > 50
22 | B20 | > 50
23 | B21 | > 50
24 | B22 | > 50

Target: T1, human complement factor H
Test: ELISA, vs respective wildtype fHbp

Row | Molecule | Fold-Decrease in fH binding [fold]
25 | B2 | > 50
26 | B23 | 0
27 | B24 | 0
28 | B16 | > 10

Target: T1, human complement factor H
Test: ELISA, vs respective wildtype fHbp
Remark: another data set of the same source

Row | Molecule | Fold-Decrease in fH binding [fold]
29 | B1 | 0
30 | B10 | 0
31 | B11 | 0
32 | B25 | 0
33 | B26 | 0
34 | B12 | 0
35 | B27 | 0
36 | B13 | 0
37 | B14 | 0
38 | B28 | 0
39 | B29 | 0
